Assay results: patent US11015206B2, “Compositions and methods comprising sequences having hydroxyphenylpyruvate dioxygenase (HPPD) activity” (PIONEER HI-BRED INTERNATIONAL, INC., priority 2014, dated 2021)
Changes are numbered by the printed parent chain. In names and notes the source's numbering stands.

Key:
Format in all cases: biochemical, Z. mays
[1] = test system: 4-hydroxyphenylpyruvate dioxygenase (HPPD); experiment: Estimate of kcat from initial rate at saturating hydroxyphenylpyruvate without inhibitor (ON rate ratio assay); conditions: Table 5; single substitutions in Round 7 variant 9070 (SEQ ID NO:2); estimate from initial rate at saturating hydroxyphenylpyruvate without inhibitor
Outline: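 Reactions used 60 or 120 nM HPPD and saturating 100 μM hydroxyphenylpyruvate without inhibitor. kcat was estimated from the initial rate at the known enzyme concentration.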

[2] = test system: 4-hydroxyphenylpyruvate dioxygenase (HPPD); experiment: HPPD activity coupled assay with HGD; substrate saturation kinetic parameters (kcat, KM); conditions: Table 6; for kcat: single substitutions in SEQ ID NO:2
Outline: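 Coupled continuous assay: His-tagged HPPD (5 to 240 nM, E. coli-expressed, Ni-NTA-purified) with 50 nM P. aeruginosa HGD in 25 mM Hepes pH 7, 2 mM ascorbate, 10 μM FeSO4; maleylacetoacetate followed at 320 nm. KM and Vmax from Lineweaver-Burke fits over 3.33–100 μM HPP.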

[3] = test system: 4-hydroxyphenylpyruvate dioxygenase (HPPD); experiment: Insensitivity parameter (ON × OFF) and trait fitness (ON × OFF × kcat/KM or × kcat); conditions: for ON × OFF × kcat, Value / ON × OFF × kcat, Fold vs wt / ON × OFF, fold vs wt / ON × OFF (parameters with tembotrione): Table 5, tembotrione; for ON × OFF × kcat, Fold vs wt / ON × OFF, fold vs wt: fold vs maize wild type HPPD; for ON × OFF (parameters with tembotrione): insensitivity parameter
Outline: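 Calculated, not measured directly: ON rate ratio × OFF rate ratio gives an insensitivity parameter serving as a KD surrogate.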

[4] = test system: 4-hydroxyphenylpyruvate dioxygenase (HPPD); experiment: OFF rate ratio: release of inhibitor from pre-formed enzyme-inhibitor complex; conditions: Table 5; tembotrione
Outline: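 HPPD (7.2 μM) pre-incubated 1 h at RT with inhibitor (8 μM), then diluted into 25 mM Hepes pH 7, 2 mM ascorbate, 10 μM FeSO4, 100 μM HPP, 50 nM HGD; A320 followed 12 min. Ratio = steady-state rate with inhibitor over initial rate of inhibitor-free enzyme.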

[5] = test system: 4-hydroxyphenylpyruvate dioxygenase (HPPD); experiment: ON rate ratio: HPPD reaction rate with vs without inhibitor in the 70 to 90 second interval; conditions: Table 5; tembotrione
Outline: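 Time courses of HPPD reactions, 60 or 120 nM enzyme with 100 μM HPP substrate, run with and without 4 μM inhibitor (e.g. mesotrione, tembotrione). Value is the rate with inhibitor over rate without, taken over 70–90 s; higher ratio reflects slower kON.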

[6] = DKN (diketonitrile form of isoxaflutole)
[7] = DKN (isoxaflutole diketonitrile)

B1: 434H: single substitution Q434H in SEQ ID NO:2 (protein)
chain: MGPTPTATAAGAAVAAASAAEQAAFRLVGHRNFVRFNPRSDRFQTLAFHHVELWCADAASAAGRFSFALGVPLAARSDLSTGNSAHASLLLRSGSLSLLFTAPYAHGADAATAALPSFSAAAARRFAADHGLAVRAVALRVADAEDAFRASVAAGARPAFGPVDLGRGFRLAEVELYGDVVLRYVSYPDGAAGEPFLPGFEGVASPGAADYGLSRFDHIVGNVPELAPAAAYMAGFTGFHEFAEFTTEDVGTTESGLNSMALANNSENVLLPLNEPVHGTKRRSQIQTFLDHHGGPGVQHIALASDDVLRTLREMRARSAMGGFEFLPPPLSDYYDGVRRCAGDVLTEAQINECQELGVMVDRDDQGVLLQIFTKPVGDRPTFFLEIIQRIGCMEKDEKGQEYQKGGCGGFGKGNFGQLFKSIEDYEKSLEAKHAAAAATAQGS
modifications: Zea mays variant form created by artificial means.
kcat [1]: 0.865 s⁻¹
Km [2]: 2.77 µM
kcat [2]: 1.41 s⁻¹
Insensitivity parameter, ON × OFF [3, 6]: 0.21
ON × OFF × kcat/km fold vs Round 7, variant 9070 [3, 7]: 1.4
Insensitivity parameter, ON × OFF ([3]; Mesotrione, Table 6): 0.46
ON × OFF × kcat/km fold vs Round 7, variant 9070 ([3]; Sulco (sulcotrione)): 1.3
Insensitivity parameter, ON × OFF ([3]; Sulcotrione): 0.55
ON × OFF × kcat, Value [3]: 5.16
ON × OFF × kcat, Fold vs wt [3]: 4.82
ON × OFF, fold vs wt [3]: 19.5
ON × OFF (parameters with tembotrione) [3]: 0.10
Insensitivity parameter, ON × OFF ([3]; Tembotrione): 0.15
ON × OFF × kcat/km fold vs Round 7, variant 9070 ([3]; Topra (topramezone)): 1.1
Insensitivity parameter, ON × OFF ([3]; Topramezon): 0.22
ON × OFF × kcat/km fold vs Round 7, variant 9070 ([3]; meso (mesotrione)): 1.3
ON × OFF × kcat/km fold vs Round 7, variant 9070 ([3]; tembo (tembotrione)): 1.1
OFF ratio (parameters with tembotrione) [4]: 0.13
ON ratio (parameters with tembotrione) [5]: 0.78

B2: 417S: single substitution G417S in SEQ ID NO:2 (protein)
chain: B1 chain with G417S, H434Q
modifications: Zea mays variant form created by artificial means.
kcat [1]: 0.308 s⁻¹
Km [2]: 1.41 µM
kcat [2]: 0.445 s⁻¹
Insensitivity parameter, ON × OFF [3, 6]: 0.41
ON × OFF × kcat/km fold vs Round 7, variant 9070 [3, 7]: 0.9
Insensitivity parameter, ON × OFF ([3]; Mesotrione, Table 6): 0.67
ON × OFF × kcat/km fold vs Round 7, variant 9070 ([3]; Sulco (sulcotrione)): 1.1
Insensitivity parameter, ON × OFF ([3]; Sulcotrione): 0.77
ON × OFF × kcat, Value [3]: 4.26
ON × OFF × kcat, Fold vs wt [3]: 3.98
ON × OFF, fold vs wt [3]: 45.2
ON × OFF (parameters with tembotrione) [3]: 0.23
Insensitivity parameter, ON × OFF ([3]; Tembotrione): 0.33
ON × OFF × kcat/km fold vs Round 7, variant 9070 ([3]; Topra (topramezone)): 1.2
Insensitivity parameter, ON × OFF ([3]; Topramezon): 0.41
ON × OFF × kcat/km fold vs Round 7, variant 9070 ([3]; meso (mesotrione)): 1.3
ON × OFF × kcat/km fold vs Round 7, variant 9070 ([3]; tembo (tembotrione)): 1.6
OFF ratio (parameters with tembotrione) [4]: 0.28
ON ratio (parameters with tembotrione) [5]: 0.82

B3: 191G: single substitution A191G in SEQ ID NO:2 (protein)
chain: B1 chain with A191G, H434Q
modifications: Zea mays variant form created by artificial means.
kcat [1]: 0.71 s⁻¹
Km [2]: 2.46 µM
kcat [2]: 1.2 s⁻¹
Insensitivity parameter, ON × OFF [3, 6]: 0.25
ON × OFF × kcat/km fold vs Round 7, variant 9070 [3, 7]: 1.1
Insensitivity parameter, ON × OFF ([3]; Mesotrione, Table 6): 0.40
ON × OFF × kcat/km fold vs Round 7, variant 9070 ([3]; Sulco (sulcotrione)): 1.1
Insensitivity parameter, ON × OFF ([3]; Sulcotrione): 0.51
ON × OFF × kcat, Value [3]: 4.36
ON × OFF × kcat, Fold vs wt [3]: 4.08
ON × OFF, fold vs wt [3]: 20.1
ON × OFF (parameters with tembotrione) [3]: 0.10
Insensitivity parameter, ON × OFF ([3]; Tembotrione): 0.19
ON × OFF × kcat/km fold vs Round 7, variant 9070 ([3]; Topra (topramezone)): 1.1
Insensitivity parameter, ON × OFF ([3]; Topramezon): 0.24
ON × OFF × kcat/km fold vs Round 7, variant 9070 ([3]; meso (mesotrione)): 1.1
ON × OFF × kcat/km fold vs Round 7, variant 9070 ([3]; tembo (tembotrione)): 1.0
OFF ratio (parameters with tembotrione) [4]: 0.13
ON ratio (parameters with tembotrione) [5]: 0.77

B4: 182M: single substitution L182M in SEQ ID NO:2 (protein)
chain: B1 chain with L182M, H434Q
modifications: Zea mays variant form created by artificial means.
kcat [1]: 0.433 s⁻¹
Km [2]: 2.88 µM
kcat [2]: 0.935 s⁻¹
Insensitivity parameter, ON × OFF [3, 6]: 0.30
ON × OFF × kcat/km fold vs Round 7, variant 9070 [3, 7]: 0.9
Insensitivity parameter, ON × OFF ([3]; Mesotrione, Table 6): 0.44
ON × OFF × kcat/km fold vs Round 7, variant 9070 ([3]; Sulco (sulcotrione)): 0.9
Insensitivity parameter, ON × OFF ([3]; Sulcotrione): 0.60
ON × OFF × kcat, Value [3]: 5.63
ON × OFF × kcat, Fold vs wt [3]: 5.26
ON × OFF, fold vs wt [3]: 42.5
ON × OFF (parameters with tembotrione) [3]: 0.22
Insensitivity parameter, ON × OFF ([3]; Tembotrione): 0.23
ON × OFF × kcat/km fold vs Round 7, variant 9070 ([3]; Topra (topramezone)): 0.9
Insensitivity parameter, ON × OFF ([3]; Topramezon): 0.29
ON × OFF × kcat/km fold vs Round 7, variant 9070 ([3]; meso (mesotrione)): 0.8
ON × OFF × kcat/km fold vs Round 7, variant 9070 ([3]; tembo (tembotrione)): 1.0
OFF ratio (parameters with tembotrione) [4]: 0.28
ON ratio (parameters with tembotrione) [5]: 0.79

B5: 432R: single substitution A432R in SEQ ID NO:2 (protein)
chain: B1 chain with A432R, H434Q
modifications: Zea mays variant form created by artificial means.
kcat [1]: 0.51 s⁻¹
Km [2]: 1.97 µM
kcat [2]: 0.945 s⁻¹
Insensitivity parameter, ON × OFF [3, 6]: 0.27
ON × OFF × kcat/km fold vs Round 7, variant 9070 [3, 7]: 2.1
Insensitivity parameter, ON × OFF ([3]; Mesotrione, Table 6): 0.53
ON × OFF × kcat/km fold vs Round 7, variant 9070 ([3]; Sulco (sulcotrione)): 1.3
Insensitivity parameter, ON × OFF ([3]; Sulcotrione): 0.59
ON × OFF × kcat, Value [3]: 4.75
ON × OFF × kcat, Fold vs wt [3]: 4.44
ON × OFF, fold vs wt [3]: 30.4
ON × OFF (parameters with tembotrione) [3]: 0.16
Insensitivity parameter, ON × OFF ([3]; Tembotrione): 0.23
ON × OFF × kcat/km fold vs Round 7, variant 9070 ([3]; Topra (topramezone)): 1.4
Insensitivity parameter, ON × OFF ([3]; Topramezon): 0.31
ON × OFF × kcat/km fold vs Round 7, variant 9070 ([3]; meso (mesotrione)): 1.5
ON × OFF × kcat/km fold vs Round 7, variant 9070 ([3]; tembo (tembotrione)): 1.6
OFF ratio (parameters with tembotrione) [4]: 0.20
ON ratio (parameters with tembotrione) [5]: 0.78

B6: 366E: single substitution Q366E in Round 7, variant 9070 (SEQ ID NO:2) (protein)
chain: B1 chain with Q366E, H434Q
modifications: Zea mays variant form created by artificial means.
kcat [1]: 0.335 s⁻¹
Km [2]: 1.61 µM
kcat [2]: 0.647 s⁻¹
Insensitivity parameter, ON × OFF [3, 6]: 0.44
ON × OFF × kcat/km fold vs Round 7, variant 9070 [3, 7]: 1.7
Insensitivity parameter, ON × OFF ([3]; Mesotrione, Table 6): 0.78
ON × OFF × kcat/km fold vs Round 7, variant 9070 ([3]; Sulco (sulcotrione)): 1.4
Insensitivity parameter, ON × OFF ([3]; Sulcotrione): 0.74
ON × OFF × kcat, Value [3]: 3.58
ON × OFF × kcat, Fold vs wt [3]: 3.35
ON × OFF, fold vs wt [3]: 34.9
ON × OFF (parameters with tembotrione) [3]: 0.18
Insensitivity parameter, ON × OFF ([3]; Tembotrione): 0.33
ON × OFF × kcat/km fold vs Round 7, variant 9070 ([3]; Topra (topramezone)): 1.9
Insensitivity parameter, ON × OFF ([3]; Topramezon): 0.48
ON × OFF × kcat/km fold vs Round 7, variant 9070 ([3]; meso (mesotrione)): 1.8
ON × OFF × kcat/km fold vs Round 7, variant 9070 ([3]; tembo (tembotrione)): 1.8
OFF ratio (parameters with tembotrione) [4]: 0.24
ON ratio (parameters with tembotrione) [5]: 0.75
